Patent publication US20260193315A1 (FBD BIOLOGICS, published 2026)
Changes are numbered by the printed parent chain.

B1: 1D2 (ligand)
4-1BBL variant: ACPWAVSGARASPGSAASPRLREGPELSPDDPAGLLDLRQGMFAQLVAQNVLLIDGPLSWYEDPGLAGVSLTGGLSYKEDTKELVVAKAGVYYVFFQLELRRVVAGTGSGSVSLALHLQPLRSAAGAAALALTVDLPPASSEARNSAFGFQGRLLHLSAGQRLGVHLHTEARARHALQLTQGATVLGLFRVTPEIPAGLPSPRSE
notes: also called 4-1BBL variant 1D2 (phagemid clone, bacterial supernatant)
B2: 8E2 (ligand)
4-1BBL variant: B1 4-1BBL variant with E62P, G106F, T107E, A176S, L177W
notes: also called 4-1BBL variant 8E2 (phagemid clone, bacterial supernatant)
B3: 8B10 (ligand)
4-1BBL variant: B1 4-1BBL variant with E62T, T107M, A176S, L177W
notes: also called 4-1BBL variant 8B10 (phagemid clone, bacterial supernatant)
B4: 4C2 (ligand)
4-1BBL variant: B1 4-1BBL variant with E62P, T107R, L177W, L179F
notes: also called 4-1BBL variant 4C2 (phagemid clone, bacterial supernatant)
B5: 5D9 (ligand)
4-1BBL variant: B1 4-1BBL variant with W60F, E62S, L177W, L179M
notes: also called 4-1BBL variant 5D9 (phagemid clone, bacterial supernatant)
B6: 4E10 (ligand)
4-1BBL variant: B1 4-1BBL variant with E62P, G106R, T107E, L177M
notes: also called 4-1BBL variant 4E10 (phagemid clone, bacterial supernatant)

Assays:
[1] = target: 4-1BB on transfected NF-κB Jurkat cells (UniProt Q07011 24-255, limits assumed); experiment: cell-based or functional assay
Sequence of 4-1BB on transfected NF-κB Jurkat cells (Q07011 24-255 limits assumed): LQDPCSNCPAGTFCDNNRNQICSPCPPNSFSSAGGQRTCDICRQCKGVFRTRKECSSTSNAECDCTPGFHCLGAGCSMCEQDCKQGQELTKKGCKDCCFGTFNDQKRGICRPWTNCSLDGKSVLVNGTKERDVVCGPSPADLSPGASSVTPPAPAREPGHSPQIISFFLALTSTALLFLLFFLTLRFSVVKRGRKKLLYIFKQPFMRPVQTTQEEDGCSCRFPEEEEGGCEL

[2] = target: T1, 4-1BB (coated on ELISA plate) (UniProt Q07011 24-186, limits assumed); experiment: ELISA on coated 4-1BB, supernatant
Protocol: (§1) After centrifugation, culture supernatant was collected for determination of expression and binding activity of the 4-1BBL variants. To determine expression of the 4-1BBL variants, a 96-well plate (flat bottom) was coated with 2 μg/ml anti-His tag antibody overnight. The pre-coated plate was then blocked with 5% milk in PBS at room temperature (RT) for 1 hour. After blocking, 30 μl of bacterial supernatant was added to each well of the plate, and the plate was incubated for 1 hour at RT. After the incubation, anti-c-myc-HRP was added, and the expression level of 4-1BBL variants can be determined by measuring OD450 in a plate reader. To determine binding activity of the 4-1BBL variants, a 96-well plate (flat bottom) was coated with 0.5 μg/ml of 4-1BB overnight. The pre-coated plate was then blocked with 5% milk in PBS at RT for 1 hour. After blocking, 30μ of bacterial supernatant was added to each well of the plate, and the plate was incubated for 1 hour at RT. After the incubation, anti-c-myc-HRP was added, and the 4-1BB-binding activity of 4-1BBL variants can be determined by measuring OD450 in a plate reader.
(§2) The 4-1BB-binding activity was measured using the same methods described above. With respect to 4-1BB-mediated NF-κB reporter activity, a 96-well plate (flat bottom) was coated with 5 μg/ml anti-c-myc antibody at 4° C. overnight. The induced 4-1BBL variant supernatants were added to the pre-coated plate, and the plate was incubated at 37° C. for 2 hours. The above steps were repeated for six times. Afterwards, 1×10⁵/well of transfected NF-κB Jurkat cells expressing 4-1BB was added to the plate, which was then incubated for 5 hours at 37° C. After the incubation, the luminance signal was detected to determine the 4-1BB reporter activity.

[3] = target: T1, 4-1BB (coated on ELISA plate); experiment: ELISA, binding OD450 / expression OD450
Protocol: as §1

[4] = target: T1, 4-1BB (coated on ELISA plate); experiment: ELISA, binding OD450 / expression OD450; remark: listed apart in the source
Protocol: as §1, §2

[5] = target: T1, 4-1BB (coated on ELISA plate); experiment: ELISA on coated 4-1BB, supernatant, OD450
Protocol: as §1

[6] = target: T1, 4-1BB (coated on ELISA plate); experiment: ELISA, binding/expression ratio relative to WT
Protocol: as §1, §2

[7] = target: T1, 4-1BB (coated on ELISA plate); experiment: ELISA, binding OD450 / expression OD450, after 45 °C 30 min
Protocol: as §1

[8] = target: T1, 4-1BB (coated on ELISA plate); experiment: ELISA on coated 4-1BB, supernatant after 45 °C 30 min, OD450
Protocol: as §1

Binder	Reporter (RLU) [1] [RLU]	Reporter (vs wt) [1]	Reporter/Expression ratio [1]	Binding (OD450) [2] [OD450]	Binding / Expression ratio (25 degrees) [3]	Binding/Expression ratio [4]	Binding (25 °C) [5]	Binding (vs wt) [6]	Binding / Expression ratio (45degrees) [7]	Binding (45 °C) [8]
B1	4390	0.75	2150	1.35	0.525	0.66	1.16	0.38	0.553	0.803
B2	4880	0.9	2570	0.392	0.188	0.21	0.231	0.12	0.388	0.309
B3	8820	4.66	13300	1.75	1.79	2.65	1.5	1.52	0.636	0.182
B4	3420	0.71	2040	1.12	0.431	0.67	0.657	0.38	0.506	0.823
B5	4780	1.48	4240	1.98	1.53	1.75	1.43	1.01	0.537	0.205
B6	7360	2.74	7830	0.975	0.679	1.04	1.36	0.6	0.885	1.25
